Experimental data: patent US8592138B2, “Methods for improving sperm functionality” (Androgenix Ltd., priority 2010, dated 2013)

B1: PDC-109: bovine seminal plasma protein purified by ion exchange chromatography; SEQ ID NO: 1 (protein, listed as Bos taurus)
chain: MALQLGLFLIWAGVSVFLQLDPVNGDQDEGVSTEPTQDGPAELPEDEECVFPFVYRNRKHFDCTVHGSLFPWCSLDADYVGRWKYCAQRDYAKCVFPFIYGGKKYETCTKIGSMWMSWCSLSPNYDKDRAWKYC
B2: aSFP: acidic seminal fluid protein, bovine spermadhesin; SEQ ID NO: 4 (protein, listed as Bos taurus)
chain: MKLSSVIPWALLLSTATVDSMDWLPRNTNCGGILKEESGVIATYYGPKTNCVWTIQMPPEYHVRVSIQYLQLNCNKESLEIIDGLPGSPVLGKICEGSLMDYRSSGSIMTVKYIREPEHPASFYEVLYFQDPQA
B3: BSP-A3: bovine seminal plasma protein; SEQ ID NO: 2 (protein, listed as Bos taurus)
chain: MALRLGLFLIWAGVSMFLQLDPVNGDEQLSEDNVILPKEKKDPASGAETKDNKCVFPFIYGNKKYFDCTLHGSLFLWCSLDADYTGRWKYCTKNDYAKCVFPFIYEGKSYDTCIIIGSTFMNYWCSLSSNYDEDGVWKYC

Columns and labels:
sperm cells = experiment: Flow cytometry of pegylated seminal proteins binding to sperm; type: cell-based, bovine; settings: 1 μg/mL pegylated SP protein, 30 min at 28° C.
Description: (§1) NHS-dPEG4-Biotin was resuspended in H2O. Two hundred micrograms of PDC-109, BSP-A3, BSP-30 kDa and aSFP, were mixed in molar ratios of 1:5, 1:20, 1:40 and 1:60 with NHS-dPEG4Biotin and incubated for 30 min at room temperature. The reaction was stopped by the addition of 1M Tris-HCl pH7.4 at a final concentration of 25 mM. Pegylated proteins were dialysed against PBS to remove excess PEG. Pegylation was assessed by SDS-PAGE with Coomassie Blue staining. […] Western blots with labelled streptavidin supported this conclusion.
Sperm cells were prepared by centrifugation of fresh ejaculate containing extender through a 60% Percoll™ PLUS gradient followed by one wash in NCM. The sperm cells were then incubated for 30 min at 28° C. with 1 μg/mL of each of the pegylated SP proteins. After incubation with the pegylated SP proteins, cells were washed once, streptavidin-alexa fluor 488 was added to the cells and they were incubated for a further 30 min at 37° C. Flow cytometry analysis was then conducted.

Bovine sperm cells = experiment: Fluorescence microscopy of pegylated seminal proteins binding to sperm; type: cell-based; settings: pegylated/biotinylated SP protein, 37° C. for 30 min in NCM
Description: as §1
Bovine sperm cells from liquid extended semen were percoll-purified and washed in non-capacitating media (NCM; Table 3 below) with addition of 0.1% PEG (MW 600, Serva). The cells were incubated with pegylated/biotinylated SP proteins in NCM at 37° C. for 30 min, and centrifuged once to remove the supernatant. Cell pellets were resuspended in NCM containing streptavidin-alexa fluor 488 and LIVE/DEAD fixable far red dye, and incubated at 37° C. for 1 hr. Cells were washed once in NCM, and resuspended in NCM to a final concentration close to 10^7 cells/ml. DAPI was added to cells, and 10^5 cells were placed onto Superfrost plus slide. The sperm cells were studied with a Leica DMRE microscope equipped with a Leica DC500 camera, a fluorescent ebq 100 lamp and interchangeable filter sets.

Molecule	Binding to sperm cells (right-shift in the histogram vs streptavidin-alexa fluor 488 alone) (sperm cells)	Fluorescent signal on sperm (streptavidin-alexa fluor 488) (Bovine sperm cells)
B1	demonstrated binding to sperm cells	–
B2	–	strong fluorescent signal in the acrosomal cap part of sperm head
B3	demonstrated binding to sperm cells	–
